Assay results published in the array DNA melting data of Ke et al..

Assay: melting temperature; melt of duplexes
Settings: sodium 0.0675 M; strand 1 µM

Substance | Tm
CGACGTGCATGATGTGCTG+CAGCACATTGAGCACGTCG ((((((((...((((((((+))))))))...)))))))) | 50.7 °C
CGACGTGCCCAATGTGCTG+CAGCACATCCAGCACGTCG ((((((((...((((((((+))))))))...)))))))) | 49 °C
CGACGTGCTCAATGTGCTG+CAGCACATCCCGCACGTCG ((((((((...((((((((+))))))))...)))))))) | 48 °C
CGACGTGCCTCATGTGCTG+CAGCACATCGAGCACGTCG ((((((((...((((((((+))))))))...)))))))) | 50 °C
CGACGTGCCATATGTGCTG+CAGCACATACGGCACGTCG (((((((((.(((((((((+))))))))).))))))))) | 55.3 °C
CGACGTGCGTAATGTGCTG+CAGCACATCGTGCACGTCG ((((((((...((((((((+))))))))...)))))))) | 44.3 °C
CGACGTGCTGTATGTGCTG+CAGCACATCGGGCACGTCG ((((((((...((((((((+))))))))...)))))))) | 50.6 °C
CGACGTGCAGCATGTGCTG+CAGCACATACCGCACGTCG ((((((((.(.((((((((+)))))))).).)))))))) | 47.3 °C
CGACGTGCCCCATGTGCTG+CAGCACATAGAGCACGTCG ((((((((.(.((((((((+)))))))).).)))))))) | 48.7 °C
CGACGTGCCTGATGTGCTG+CAGCACATTGCGCACGTCG ((((((((...((((((((+))))))))...)))))))) | 49.3 °C
CGACGTGCGGGATGTGCTG+CAGCACATCTTGCACGTCG ((((((((..(((((((((+)))))))))..)))))))) | 57.3 °C
CGACGTGCGACATGTGCTG+CAGCACATAGGGCACGTCG ((((((((...((((((((+))))))))...)))))))) | 50 °C
CGACGTGCGATATGTGCTG+CAGCACATTCAGCACGTCG ((((((((...((((((((+))))))))...)))))))) | 52.8 °C
CGACGTGCTTCATGTGCTG+CAGCACATCGCGCACGTCG ((((((((...((((((((+))))))))...)))))))) | 46.2 °C
CGACGTGCTGAATGTGCTG+CAGCACATCTAGCACGTCG (((((((((..((((((((+))))))))..))))))))) | 53 °C
CGACGTGCGGCATGTGCTG+CAGCACATTTTGCACGTCG ((((((((...((((((((+))))))))...)))))))) | 48.7 °C
CGACGTGCACGATGTGCTG+CAGCACATCTCGCACGTCG ((((((((..(((((((((+)))))))))..)))))))) | 50.6 °C
CGACGTGCTCAATGTGCTG+CAGCACATGAGGCACGTCG ((((((((...((((((((+))))))))...)))))))) | 53 °C

Substance | Tm
CGACGTGCAATATGTGCTG+CAGCACATGTTGCACGTCG ((((((((((.((((((((+)))))))).)))))))))) | 58.4 °C
CGACGTGCCGAATGTGCTG+CAGCACATTTCGCACGTCG ((((((((..(((((((((+)))))))))..)))))))) | 52.4 °C
CGACGTGCCAAATGTGCTG+CAGCACATATCGCACGTCG ((((((((.(.((((((((+)))))))).).)))))))) | 47.2 °C
CGACGTGCCTAATGTGCTG+CAGCACATAGTGCACGTCG ((((((((...((((((((+))))))))...)))))))) | 47.2 °C
CGACGTGCCAGATGTGCTG+CAGCACATTTCGCACGTCG ((((((((.(.((((((((+)))))))).).)))))))) | 49.6 °C
CGACGTGCTTTATGTGCTG+CAGCACATTGAGCACGTCG (((((((((..((((((((+))))))))..))))))))) | 52 °C
CGACGTGCTTGATGTGCTG+CAGCACATGAGGCACGTCG ((((((((.(.((((((((+)))))))).).)))))))) | 51.6 °C
CGACGTGCCTCATGTGCTG+CAGCACATCGCGCACGTCG ((((((((...((((((((+))))))))...)))))))) | 46.6 °C
CGACGTGCGTAATGTGCTG+CAGCACATACTGCACGTCG ((((((((...((((((((+))))))))...)))))))) | 52.4 °C
CGACGTGCAGCATGTGCTG+CAGCACATGTGGCACGTCG ((((((((..(((((((((+)))))))))..)))))))) | 55.5 °C
CGACGTGCCGGATGTGCTG+CAGCACATTTCGCACGTCG ((((((((...((((((((+))))))))...)))))))) | 49.1 °C
CGACGTGCTAGATGTGCTG+CAGCACATACTGCACGTCG ((((((((...((((((((+))))))))...)))))))) | 50.9 °C
CGACGTGCCGAATGTGCTG+CAGCACATTGTGCACGTCG ((((((((..(((((((((+)))))))))..)))))))) | 50.1 °C
CGACGTGCGCAATGTGCTG+CAGCACATCTTGCACGTCG ((((((((...((((((((+))))))))...)))))))) | 48.7 °C
CGACGTGCTCGATGTGCTG+CAGCACATGGTGCACGTCG ((((((((.(.((((((((+)))))))).).)))))))) | 49.7 °C
CGACGTGCGTGATGTGCTG+CAGCACATGTTGCACGTCG ((((((((...((((((((+))))))))...)))))))) | 50 °C
CGACGTGCCGGATGTGCTG+CAGCACATACGGCACGTCG ((((((((((.((((((((+)))))))).)))))))))) | 63.8 °C
CGACGTGCCCTATGTGCTG+CAGCACATCACGCACGTCG ((((((((...((((((((+))))))))...)))))))) | 46.4 °C
